B1: IQUB (parent)
chain: KIREKEEWIKLDYHRRHNPKTNED

Variants of: B1
Test: protein stability index of a GFP-peptide fusion (GPS, HEK-293T) (PSI 1-6); higher = more stable
Settings: c terminus: a fixed tail appended
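Also: lentivirally expressed fusions sorted by FACS into six bins by GFP to DsRed ratio, PSI derived from sequencing read proportions per bin multiplied by bin number.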

In order of falling protein stability index:
1. NIREKEEWIKLDYHRRHNPKTNED [K1N]  5.44
2. KIDEKEEWIKLDYHRRHNPKTNED [R3D]  5.34
3. KEREKEEWIKLDYHRRHNPKTNED [I2E]  5.32
4. KGREKEEWIKLDYHRRHNPKTNED [I2G]  5.25
5. KDREKEEWIKLDYHRRHNPKTNED [I2D]  5.17
6. KIGEKEEWIKLDYHRRHNPKTNED [R3G]  5.16
7. GIREKEEWIKLDYHRRHNPKTNED [K1G]  5.15
8. KSREKEEWIKLDYHRRHNPKTNED [I2S]  5.09
9. KIEEKEEWIKLDYHRRHNPKTNED [R3E]  5.08
10. KIAEKEEWIKLDYHRRHNPKTNED [R3A]  5.05
11. KNREKEEWIKLDYHRRHNPKTNED [I2N]  5
12. DIREKEEWIKLDYHRRHNPKTNED [K1D]  4.99
13. PIREKEEWIKLDYHRRHNPKTNED [K1P]  4.99
14. KIPEKEEWIKLDYHRRHNPKTNED [R3P]  4.97
15. QIREKEEWIKLDYHRRHNPKTNED [K1Q]  4.96
16. KIREQEEWIKLDYHRRHNPKTNED [K5Q]  4.93
17. KHREKEEWIKLDYHRRHNPKTNED [I2H]  4.91
18. KAREKEEWIKLDYHRRHNPKTNED [I2A]  4.88
19. TIREKEEWIKLDYHRRHNPKTNED [K1T]  4.87
20. KKREKEEWIKLDYHRRHNPKTNED [I2K]  4.8
21. KICEKEEWIKLDYHRRHNPKTNED [R3C]  4.8
22. AIREKEEWIKLDYHRRHNPKTNED [K1A]  4.79
23. KLREKEEWIKLDYHRRHNPKTNED [I2L]  4.74
24. KMREKEEWIKLDYHRRHNPKTNED [I2M]  4.72
25. KINEKEEWIKLDYHRRHNPKTNED [R3N]  4.72
26. KIRENEEWIKLDYHRRHNPKTNED [K5N]  4.7
27. KTREKEEWIKLDYHRRHNPKTNED [I2T]  4.69
28. RIREKEEWIKLDYHRRHNPKTNED [K1R]  4.68
29. KVREKEEWIKLDYHRRHNPKTNED [I2V]  4.67
30. KIHEKEEWIKLDYHRRHNPKTNED [R3H]  4.67
31. KIKEKEEWIKLDYHRRHNPKTNED [R3K]  4.67
32. KIRNKEEWIKLDYHRRHNPKTNED [E4N]  4.67
33. KIREREEWIKLDYHRRHNPKTNED [K5R]  4.64
34. KIREPEEWIKLDYHRRHNPKTNED [K5P]  4.63
35. EIREKEEWIKLDYHRRHNPKTNED [K1E]  4.62
36. HIREKEEWIKLDYHRRHNPKTNED [K1H]  4.62
37. SIREKEEWIKLDYHRRHNPKTNED [K1S]  4.62
38. KCREKEEWIKLDYHRRHNPKTNED [I2C]  4.62
39. KITEKEEWIKLDYHRRHNPKTNED [R3T]  4.61
40. KIQEKEEWIKLDYHRRHNPKTNED [R3Q]  4.6
41. KISEKEEWIKLDYHRRHNPKTNED [R3S]  4.6
42. KIREGEEWIKLDYHRRHNPKTNED [K5G]  4.6
43. KRREKEEWIKLDYHRRHNPKTNED [I2R]  4.58
44. VIREKEEWIKLDYHRRHNPKTNED [K1V]  4.52
45. KIVEKEEWIKLDYHRRHNPKTNED [R3V]  4.52
46. KIREDEEWIKLDYHRRHNPKTNED [K5D]  4.51
47. KIREHEEWIKLDYHRRHNPKTNED [K5H]  4.51
48. KIRDKEEWIKLDYHRRHNPKTNED [E4D]  4.48
49. KIREEEEWIKLDYHRRHNPKTNED [K5E]  4.45
50. KIRAKEEWIKLDYHRRHNPKTNED [E4A]  4.38
51. KIIEKEEWIKLDYHRRHNPKTNED [R3I]  4.35
52. KIRHKEEWIKLDYHRRHNPKTNED [E4H]  4.32
53. KIFEKEEWIKLDYHRRHNPKTNED [R3F]  4.3
54. KIYEKEEWIKLDYHRRHNPKTNED [R3Y]  4.29
55. KWREKEEWIKLDYHRRHNPKTNED [I2W]  4.26
56. KILEKEEWIKLDYHRRHNPKTNED [R3L]  4.22
57. KIWEKEEWIKLDYHRRHNPKTNED [R3W]  4.21
58. KIRETEEWIKLDYHRRHNPKTNED [K5T]  4.21
59. KYREKEEWIKLDYHRRHNPKTNED [I2Y]  4.2
60. KFREKEEWIKLDYHRRHNPKTNED [I2F]  4.19
61. LIREKEEWIKLDYHRRHNPKTNED [K1L]  4.15
62. MIREKEEWIKLDYHRRHNPKTNED [K1M]  4.14
63. KQREKEEWIKLDYHRRHNPKTNED [I2Q]  4.14
64. KIRESEEWIKLDYHRRHNPKTNED [K5S]  4.14
65. KIRECEEWIKLDYHRRHNPKTNED [K5C]  4.09
66. CIREKEEWIKLDYHRRHNPKTNED [K1C]  4.07
67. KIRMKEEWIKLDYHRRHNPKTNED [E4M]  4.06
68. KIRYKEEWIKLDYHRRHNPKTNED [E4Y]  4.03
69. IIREKEEWIKLDYHRRHNPKTNED [K1I]  4.02
70. KIMEKEEWIKLDYHRRHNPKTNED [R3M]  4.02
71. KIRPKEEWIKLDYHRRHNPKTNED [E4P]  4.02
72. KIRIKEEWIKLDYHRRHNPKTNED [E4I]  4
73. KIRTKEEWIKLDYHRRHNPKTNED [E4T]  4
74. KIRRKEEWIKLDYHRRHNPKTNED [E4R]  3.99
75. KIREAEEWIKLDYHRRHNPKTNED [K5A]  3.99
76. KIRSKEEWIKLDYHRRHNPKTNED [E4S]  3.95
77. KIRKKEEWIKLDYHRRHNPKTNED [E4K]  3.86
78. KIRGKEEWIKLDYHRRHNPKTNED [E4G]  3.85
79. KPREKEEWIKLDYHRRHNPKTNED [I2P]  3.84
80. KIRFKEEWIKLDYHRRHNPKTNED [E4F]  3.84
81. KIRQKEEWIKLDYHRRHNPKTNED [E4Q]  3.82
82. KIRLKEEWIKLDYHRRHNPKTNED [E4L]  3.81
83. WIREKEEWIKLDYHRRHNPKTNED [K1W]  3.75
84. KIRWKEEWIKLDYHRRHNPKTNED [E4W]  3.75
85. KIREWEEWIKLDYHRRHNPKTNED [K5W]  3.74
86. KIRCKEEWIKLDYHRRHNPKTNED [E4C]  3.71
87. KIREFEEWIKLDYHRRHNPKTNED [K5F]  3.67
88. KIREVEEWIKLDYHRRHNPKTNED [K5V]  3.4
89. KIRVKEEWIKLDYHRRHNPKTNED [E4V]  3.32
90. KIRELEEWIKLDYHRRHNPKTNED [K5L]  3.13
91. KIREMEEWIKLDYHRRHNPKTNED [K5M]  3.04
92. YIREKEEWIKLDYHRRHNPKTNED [K1Y]  2.98
93. FIREKEEWIKLDYHRRHNPKTNED [K1F]  2.67
94. KIREIEEWIKLDYHRRHNPKTNED [K5I]  2.39

From the supplement of paper PMC10567573
